Measured values reported in US12497461B2, “Human NTCP-binding antibody capable of inhibiting infection of hepatitis B virus (HBV) to human hepatocytes” (priority 2019, dated 2025).

Legend:
human NTCP Y146A mutant = target: T1, human NTCP Y146A mutant (Homo sapiens, UniProt Q14973, Y146A); assay: Antibody binding to NTCP mutant (epitope mapping); conditions: FIG. 5A, left
T1 construct: expressed in transfected cells; host or cells: HepG2 or Huh7 cells, lentiviral transduction
T1 sequence (Q14973 1-349 Y146A): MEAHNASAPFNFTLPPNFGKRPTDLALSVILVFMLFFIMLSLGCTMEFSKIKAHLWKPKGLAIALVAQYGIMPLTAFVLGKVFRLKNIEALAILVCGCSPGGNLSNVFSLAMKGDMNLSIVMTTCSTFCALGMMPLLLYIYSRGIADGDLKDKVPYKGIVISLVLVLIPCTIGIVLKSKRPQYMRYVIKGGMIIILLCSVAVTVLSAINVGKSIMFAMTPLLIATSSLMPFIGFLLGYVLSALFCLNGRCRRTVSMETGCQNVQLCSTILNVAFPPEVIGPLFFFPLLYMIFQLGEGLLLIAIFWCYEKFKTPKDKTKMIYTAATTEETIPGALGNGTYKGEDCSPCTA
Procedure: (§1) To establish NTCP expression cells, HepG2 cells or Huh7 cells were infected with a lentiviral vector having a nucleic acid encoding a wild-type NTCP or each of NTCP mutants. Forty-eight hours after infection, the cells were subjected to an immunofluorescence assay or a viral infection assay.
(§2) Huh7 cells expressing a wild-type NTCP or each of the NTCP mutants were fixed with 4% paraformaldehyde, and then, a permeation treatment with 0.3% Triton X-100 was performed. Each of the NTCPs was detected by using N6HB426-20 antibody or HE1-9-10 antibody (dilution ratio: 1:200) and an Alexa Fluor488-conjugate goat anti-mouse IgG antibody (secondary antibody) (Thermo Fisher Scientific) (dilution ratio: 1:1000). Imaging of the cells was carried out by use of a laser scanning confocal microscope using FLUOVIEW fv1000 and IX73 (OLYMPAS).
(§3) In this manner, the relationship with a region important for HBV infection was clarified. Sensitivity to HBV infection, a change in inhibitory activity of the antibody and contribution of a predetermined amino acid residue to FACS analysis were evaluated by alanine scanning method and use of an NTCP mutant transfectant. […] However, both ends of the amino acid residues at positions 276-277 (i.e., amino acid residues at positions 274-275 and 278-279) serve as an epitope involved in HBV infection. […] The phenomenon was further precisely analyzed. […]

[1] = target: T2, human NTCP triple mutant (YDD146, 149, and 152AAA) (Homo sapiens, UniProt Q14973, D149A/D152A/Y146A); assay: Antibody binding to NTCP mutant (epitope mapping); conditions: FIG. 5B
T2 construct: expressed in transfected cells; host or cells: HepG2 or Huh7 cells, lentiviral transduction
T2 sequence (Q14973 1-349 Y146A/D149A/D152A): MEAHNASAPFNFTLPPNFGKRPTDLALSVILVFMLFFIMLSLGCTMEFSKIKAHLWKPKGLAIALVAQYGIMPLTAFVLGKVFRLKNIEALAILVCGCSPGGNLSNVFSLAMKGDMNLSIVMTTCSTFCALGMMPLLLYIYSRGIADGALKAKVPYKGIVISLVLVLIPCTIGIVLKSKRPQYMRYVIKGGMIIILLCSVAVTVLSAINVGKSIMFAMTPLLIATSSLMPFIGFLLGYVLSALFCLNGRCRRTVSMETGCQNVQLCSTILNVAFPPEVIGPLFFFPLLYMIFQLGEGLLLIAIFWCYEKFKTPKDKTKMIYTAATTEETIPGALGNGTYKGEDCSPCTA
Procedure: as §1, §2, §3

[2] = target: T3, epitope region-containing peptide fragment (AFPPEVIGPLFFFPLLYMIFQLGEG-biotin) (Homo sapiens, UniProt Q14973); assay: Surface plasmon resonance assay (BIAcore) of antigen binding affinity; conditions: 25° C.; antibody immobilized on CM5 chip
T3 sequence (Q14973 273-297 limits assumed): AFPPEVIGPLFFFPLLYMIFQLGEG
Procedure: In short, a carboxymethylated dextran biosensor chip (CM5, BIAcore Inc.) was activated by N-ethyl-N′-(3-dimethylaminopropyl)-carbodiimide hydrochloride (EDC) and N-hydroxysuccinimide (NHS) in accordance with the provider's instruction. An anti-mouse IgG antibody was diluted with 10 mM sodium acetate (pH5.2) up to 30 μg/ml. The dilution was injected at a flow rate of 5 to 10 μl/minute such that the reaction unit (RU) of the protein bound became 9,000 to 14,000 RU. In contrast, an anti-human IgG antibody was diluted with 10 mM sodium acetate (pH5.0) up to 25 μg/ml. The diluted antibody was injected at a flow rate of 5 to 10 μl/minute such that the reaction unit (RU) of the protein bound became 9,000 to 14,000 RU. After injection of each of the anti IgG antibodies, 1 M ethanolamine was injected in order to block unreactive groups. For kinetic measurement, N6HB426 antibody diluted with a running buffer (HBS-P: 10 mM HEPES pH7.5, 150 mM NaCl, 0.005% NP40) up to 10 μg/ml was immobilized onto CM5 chip via the anti-mouse IgG antibody, in advance. To the chip, a solution of an epitope region-containing peptide fragment ([…]-biotin: SEQ ID NO: 24) diluted with the running buffers at different concentrations was added at 25° C. at a flow rate of 10 μl/minute for 2 minutes. In contrast, the recombinant N6HB426 human chimeric IgG4 antibody was diluted with the running buffer up to 10 μg/ml and then was immobilized onto a sensor chip (CM5) via the anti-human IgG antibody in advance. To the chip, a solution of an epitope region-containing peptide fragment diluted with the running buffers at different concentrations was added at 25° C. at a flow rate of 10 μl/minute for 2 minutes.
The refractive index of the solution varied in correlation to the mass of a chip surface changed when a peptide fragment molecule bound to N6HB426 antibody on the sensor chip, was monitored in real-time. Using simple one-to-one Langmuir binding model (BIAcore Evaluation software version 3.1) by fitting sensor grams of antigen-antibody association and dissociation at the same time, association rate (Ka) and dissociation rate (Kd) were calculated. A Kd/Ka ratio was calculated to obtain an equilibrium dissociation constant (KD).

[3] = tested on: HBV (Genotype C or Genotype D)

B1: N6HB426-20 antibody: anti-human NTCP monoclonal antibody from a sub-clone of N6HB426 hybridoma; VH SEQ ID NO: 3, VL SEQ ID NO: 4 (antibody, V domains shown)
VH: QVQLQQSGAELVKPGASVKLSCKASDFTFTEYTIHWIKQMSGQGLEWIGWFYPGSGDIKYSEKFKDKATLTADKSSSTVYMELNRLTSEDSAVYFCARHMRDFRGFYYGRFYFDYWGQGTTLTVSS
VL: EIVLTQSPAIMSASPGEKVTITCRASSSVSSSYLHWYQQKSGVSPKLWIYSTSNLASGVPARFSGSGSGTSYSLTINSVEAEDAATYYCQQYSGYRWTFGGGTTLEIKRA
modifications: N6HB426 antibody heavy chain variable region; N6HB426 antiibody light chain variable region
binding to single mutant Y146A (human NTCP Y146A mutant): significantly low binding
binding to triple mutant (YDD146, 149, and 152AAA) [1]: weak binding
Ka (1/Ms) association rate [2]: 821.2 M⁻¹ s⁻¹
Kd (1/s) dissociation rate [2]: 3.19e-08 s⁻¹
inhibitory activity on infection of normal human hepatocytes with HBV [3]: comparable to preS1
